Results from PMC2929661.
“And” between values parts separate entries of the source, which are not always exact repeats. Equal values may be shown once. Read-outs that look alike come from different tables or passages of the source. Blank lines part the entries; values can stand above or below the molecule they belong to.

Assays:
Experiment in all cases: SPR
[1] = target: Human angiostatin kringles 1–5 (K1–5) (human)
[2] = target: Human angiostatin kringles 1–5 (K1–5) (human); remark: listed apart in the source
[3] = target: Recombinant yeast F1-ATPase (F1-ATP synthase protein complex) (yeast) (UniProt P07251)
[4] = target: Recombinant yeast F1-ATPase (F1-ATP synthase protein complex) (yeast) (UniProt P07251); remark: listed apart in the source

Ka [1]: 6.5e+06 M⁻¹ and 5.1e+06 M⁻¹
Kd [1]: 0.154 µM and 0.137 µM and 0.195 µM
koff [1]: 0.0002 s⁻¹ and 0.00019 s⁻¹
kon [1]: 1300 M⁻¹ s⁻¹ and 960 M⁻¹ s⁻¹
Kd [2]: 0.13 to 0.237 µM
Molecule: Recombinant yeast F1-ATPase (F1-ATP synthase protein complex) (from UniProt P07251 36-545; P00830 34-511; P38077 34-311)

IC50 [3]: 0.0173 µM
IC50 [4]: 0.0118 µM
B1: Pigment epithelium-derived factor (PEDF), human recombinant (ligand)
chain: QNPASPPEEGSPDPDSTGALVEEEDPFFKVPVNKLAAAVSNFGYDLYRVRSSTSPTTNVLLSPLSVATALSALSLGAEQRTESIIHRALYYDLISSPDIHGTYKELLDTVTAPQKNLKSASRIVFEKKLRIKSSFVAPLEKSYGTRPRVLTGNPRLDLQEINNWVQAQMKGKLARSTKEIPDEISILLLGVAHFKGQWVTKFDSRKTSLEDFYLDEERTVRVPMMSDPKAVLRYGLDSDLSCKIAQLPLTGSMSIIFFLPLKVTQNLTLIEESLTSEFIHDIDRELKTVQAVLTVPKLKLSYEGEVTKSLQEMKLQSLFDSPDFSKITGKPIKLTQVEHRAGFEWNEDGAGTTPSPGLQPAHLTFPLDYHLNQPFIFVLRDTDTGALLFIGKILDPRGP
